# From PMC3741172
# Biological target: Reelin from frontal cortex of non-demented (ND) subjects (human (endogenous in frontal cortex)) (UniProt P78509)
# Test: native gel or EMSA; blue native-PAGE of human frontal cortex extracts in 25 mM Bis-Tris pH 7.0, 0.5% DDM, 20% glycerol; samples not boiled; anti-Reelin immunoblot
substance,measurement,value
Reelin from frontal cortex of non-demented (ND) subjects (from UniProt P78509 26-3460) (natural protein),stoichiometry N,2
